Values joined by “and” are separate entries in the source; they are usually repeats but may differ in a detail not shown here. Identical values can stand only once.
What was measured:
[1] = biological target: T1, human ROR1 on cells (MDA-MB-231, ROR2-, ROR1+; also 786-O, ROR2+, ROR1+) (human, UniProt Q01973 30-937); experiment: Retrogenix cell microarray post-screen, ROR1 expressed on HEK 293 cells
T1 construct: whole, on cells

[2] = biological target: human CD3 on Jurkat-T Lucia cells (CD3+) (human, UniProt P07766 23-207; P04234 22-171; P09693 23-182); experiment: flow cytometry on Jurkat-T Lucia cells (CD3+); scFv-Fc followed by Alexa Fluor 647-conjugated donkey anti-human F(ab')2 pAbs
[3] = biological target: human ROR2 on cells (endogenous on T47D, 786-O and U266 cell lines); expressed on HEK 293 cells of the … (human, UniProt Q01974 34-943); experiment: cell-based or functional assay
[4] = biological target: T1, human ROR1 on cells (MDA-MB-231, ROR2-, …); experiment: flow cytometry on MDA-MB-231 cells (ROR2-, ROR1+); biAb followed by Alexa Fluor 647-conjugated donkey anti-human F(ab')2 pAbs
[5] = biological target: T2, hROR2-Fc (human ROR2 Fc fusion protein) (human, UniProt Q01974 34-403, limits assumed); experiment: SPR; reference the existing anti-ROR2 antibody (XBR2-401)
T2 construct: Given both as hROR2-Fc and as Fc-hROR2, so the order of the two parts is not certain; also called Fc-hROR2; not shown: human Fc part (captured by a mouse anti-human IgG CH2 / Fcγ mAb)

[6] = biological target: T2, hROR2-Fc (human ROR2 Fc fusion protein); experiment: SPR, Biacore X100; hROR2-Fc captured, Fab injected; reference Fab 401
[7] = biological target: T2, hROR2-Fc (human ROR2 Fc fusion protein); experiment: SPR, Biacore X100; hROR2-Fc captured by anti-human Fc mAb on a CM5 chip, Fab injected
[8] = biological target: T1, human ROR1 on cells (MDA-MB-231, ROR2-, …); experiment: flow cytometry on MDA-MB-231 cells (ROR2-, ROR1+); Fab followed by PE-conjugated goat anti-human F(ab')2 pAbs
[9] = biological target: T2, hROR2-Fc (human ROR2 Fc fusion protein); experiment: SPR (Biacore X100), Fc-hROR2 captured on CM5 chip via mouse anti-human Fcγ mAb, Fab as analyte, 1:1 binding model

B1: hX3.12.6 scFv-Fc (IgG1-like format, two identical scFv fused to human IgG1 Fc) (Fc fusion)
chain: DPMLTQSPSSLSASVGDRVTITCQASQSISSDLSWYQQKPGKAPKLLIYQASTLASGVPSRFKGSGYGTEYTLTISSLQPEDFATYYCLGGYADASYRTAFGGGTKLEIKGGGGSGGGGSGGGGSEVQLVESGGGLVQPGGSLRLSCAASGFTFSSYGVTWVRQAPGKGLEWVSYINTAGNTYYASWAKSRFTISRDNAKNSLYLQMNSLRAEDTAVYYCARDDRWSLNIWGQGTLVTVSS
notes: The text says only: (Gly4Ser)3 linker between VL and VH, fused to the human IgG1 Fc fragment; also called mAb hX3.12.6 in scFv-Fc format; Humanized scFv-Fc xh3.12.6; not shown: human IgG1 Fc fragment
[1]
  binding result: no binding (tested: 20 µg/mL)
[2]
  binding result: no binding

B2: 401×v9 ROR2×CD3 bispecific antibody (heterodimeric aglycosylated scFv-Fc) (bispecific antibody)
chain 1: DPMLTQTPSSTSTAVGDTVTIKCQASQSISSDLSWYQQKPGQRPKLLIYQASTLASGVPSRFKGSGYGTEYTLTISGVQREDAAIYYCLGGYADASYRTAFGGGTKLEIKGGGGSGGGGSGGGGSQSVKESEGGLFKPTDTLTLTCTVSGFSLSSYGVTWVRQAPGSGLEWIGYINTAGNTYYASWAKSRSTITRNTNENTVTLKMTSLTAADTATYFCARDWTSLNIWGPGTLVTVSSEPKSSDKTHTCPPCPAPELLGGPSVFLFPPKPKDTLMISRTPEVTCVVVDVSHEDPEVKFNWYVDGVEVHNAKTKPREEQYASTYRVVSVLTVLHQDWLNGKEYKCKVSNKALPAPIEKTISKAKGQPREPQVYTLPPCRDELTKNQVSLWCLVKGFYPSDIAVEWESNGQPENNYKTTPPVLDSDGSFFLYSKLTVDKSRWQQGNVFSCSVMHEALHNHYTQKSLSLSPGA
chain 2: EVQLVESGGGLVQPGGSLRLSCAASGYSFTGYTMNWVRQAPGKGLEWVALINPYKGVSTYNQKFKDRFTISVDKSKNTAYLQMNSLRAEDTAVYYCARSGYYGDSDWYFDVWGQGTLVTVSSGGGGSGGGGSGGGGSDIQMTQSPSSLSASVGDRVTITCRASQDIRNYLNWYQQKPGKAPKLLIYYTSRLESGVPSRFSGSGSGTDYTLTISSLQPEDFATYYCQQGNTLPWTFGQGTKVEIKEPKSSDKTHTCPPCPAPELLGGPSVFLFPPKPKDTLMISRTPEVTCVVVDVSHEDPEVKFNWYVDGVEVHNAKTKPREEQYASTYRVVSVLTVLHQDWLNGKEYKCKVSNKALPAPIEKTISKAKGQPREPQVCTLPPSRDELTKNQVSLSCAVKGFYPSDIAVEWESNGQPENNYKTTPPVLDSDGSFFLVSKLTVDKSRWQQGNVFSCSVMHEALHNHYTQKSLSLSPGA
[3]
  specific lysis of 786-O cells by expanded primary T cells (E:T 10:1, 16 h), EC50: 0.19 µg/mL and 1.9 nM
[4]
  binding result: no binding

B3: hX3.12.6×v9 ROR2×CD3 bispecific antibody (heterodimeric aglycosylated scFv-Fc) (bispecific antibody)
chain 1: DPMLTQSPSSLSASVGDRVTITCQASQSISSDLSWYQQKPGKAPKLLIYQASTLASGVPSRFKGSGYGTEYTLTISSLQPEDFATYYCLGGYADASYRTAFGGGTKLEIKGGGGSGGGGSGGGGSEVQLVESGGGLVQPGGSLRLSCAASGFTFSSYGVTWVRQAPGKGLEWVSYINTAGNTYYASWAKSRFTISRDNAKNSLYLQMNSLRAEDTAVYYCARDDRWSLNIWGQGTLVTVSSEPKSSDKTHTCPPCPAPELLGGPSVFLFPPKPKDTLMISRTPEVTCVVVDVSHEDPEVKFNWYVDGVEVHNAKTKPREEQYASTYRVVSVLTVLHQDWLNGKEYKCKVSNKALPAPIEKTISKAKGQPREPQVYTLPPCRDELTKNQVSLWCLVKGFYPSDIAVEWESNGQPENNYKTTPPVLDSDGSFFLYSKLTVDKSRWQQGNVFSCSVMHEALHNHYTQKSLSLSPGA
chain 2: EVQLVESGGGLVQPGGSLRLSCAASGYSFTGYTMNWVRQAPGKGLEWVALINPYKGVSTYNQKFKDRFTISVDKSKNTAYLQMNSLRAEDTAVYYCARSGYYGDSDWYFDVWGQGTLVTVSSGGGGSGGGGSGGGGSDIQMTQSPSSLSASVGDRVTITCRASQDIRNYLNWYQQKPGKAPKLLIYYTSRLESGVPSRFSGSGSGTDYTLTISSLQPEDFATYYCQQGNTLPWTFGQGTKVEIKEPKSSDKTHTCPPCPAPELLGGPSVFLFPPKPKDTLMISRTPEVTCVVVDVSHEDPEVKFNWYVDGVEVHNAKTKPREEQYASTYRVVSVLTVLHQDWLNGKEYKCKVSNKALPAPIEKTISKAKGQPREPQVCTLPPSRDELTKNQVSLSCAVKGFYPSDIAVEWESNGQPENNYKTTPPVLDSDGSFFLVSKLTVDKSRWQQGNVFSCSVMHEALHNHYTQKSLSLSPGA
notes: ROR2 scFv on the knob Fc, v9 anti-CD3 scFv on the hole Fc, both N297A; also called hX3.12.6×V9 bi-mAb
[3]
  specific lysis of 786-O cells by expanded primary T cells (E:T 10:1, 16 h), EC50: 0.21 µg/mL and 2.1 nM
[4]
  binding result: no binding

B4: hX3.12.5×v9 ROR2×CD3 bispecific antibody (heterodimeric aglycosylated scFv-Fc) (bispecific antibody)
chain 1: DPMLTQSPSSLSASVGDRVTITCQASQSISSDLSWYQQKPGKAPKLLIYQASTLASGVPSRFKGSGYGTEYTLTISSLQPEDFATYYCLGGYADASYRTAFGGGTKLEIKGGGGSGGGGSGGGGSEVQLVESGGGLIQPGGSLRLSCAASGFTVSSYGVTWVRQAPGKGLEWVSYINTAGNTYYASWAKSRFTISRDNSKNTLYLQMNSLRAEDTAVYYCARDDRWSLNIWGQGTLVTVSSEPKSSDKTHTCPPCPAPELLGGPSVFLFPPKPKDTLMISRTPEVTCVVVDVSHEDPEVKFNWYVDGVEVHNAKTKPREEQYASTYRVVSVLTVLHQDWLNGKEYKCKVSNKALPAPIEKTISKAKGQPREPQVYTLPPCRDELTKNQVSLWCLVKGFYPSDIAVEWESNGQPENNYKTTPPVLDSDGSFFLYSKLTVDKSRWQQGNVFSCSVMHEALHNHYTQKSLSLSPGA
chain 2: EVQLVESGGGLVQPGGSLRLSCAASGYSFTGYTMNWVRQAPGKGLEWVALINPYKGVSTYNQKFKDRFTISVDKSKNTAYLQMNSLRAEDTAVYYCARSGYYGDSDWYFDVWGQGTLVTVSSGGGGSGGGGSGGGGSDIQMTQSPSSLSASVGDRVTITCRASQDIRNYLNWYQQKPGKAPKLLIYYTSRLESGVPSRFSGSGSGTDYTLTISSLQPEDFATYYCQQGNTLPWTFGQGTKVEIKEPKSSDKTHTCPPCPAPELLGGPSVFLFPPKPKDTLMISRTPEVTCVVVDVSHEDPEVKFNWYVDGVEVHNAKTKPREEQYASTYRVVSVLTVLHQDWLNGKEYKCKVSNKALPAPIEKTISKAKGQPREPQVCTLPPSRDELTKNQVSLSCAVKGFYPSDIAVEWESNGQPENNYKTTPPVLDSDGSFFLVSKLTVDKSRWQQGNVFSCSVMHEALHNHYTQKSLSLSPGA
notes: ROR2 scFv on the knob Fc, v9 anti-CD3 scFv on the hole Fc, both N297A; also called hX3.12.5×V9 bi-mAb; hX3.12.5×CD3 bi-mAb
[3]
  specific lysis of 786-O cells by expanded primary T cells (E:T 10:1, 16 h), EC50: 0.15 µg/mL and 1.5 nM
[4]
  binding result: no binding

B5: XBR2-401-X3.12 Fab (affinity matured chimeric rabbit/human Fab) (Fab, V domains shown)
VH: QSVKESEGGLFKPTDTLTLTCTVSGFSLSSYGVTWVRQAPGSGLEWIGYINTAGNTYYASWAKSRSTITRNTNENTVTLKMTSLTAADTATYFCARDDRWSLNIWGPGTLVTVSS
VL: DPMLTQTPSSTSTAVGDTVTIKCQASQSISSDLSWYQQKPGQRPKLLIYQASTLASGVPSRFKGSGYGTEYTLTISGVQREDAAIYYCLGGYADASYRTAFGGGTKLEIK
notes: Chimeric rabbit/human Fab
[5]
  fold increase in binding affinity: 10 fold
[6]
  fold improvement of affinity from 401: ≥ 5 fold
[7]
  Kd: 0.7 nM
[8]
  binding result: no binding
[9]
  Kd: 0.72 nM
  koff: 3.3e-05 s⁻¹
  kon: 45000 M⁻¹ s⁻¹
